The values below come from patent US20070004628A1 (SALK INSTITUTE FOR BIOLOGICAL STUDIES, published 2007).

This test addresses T1, p75 (endogenous, mouse) (Mus musculus, UniProt Q9Z0W1 32-427).
T1 construct: Endogenous p75 of P7 mouse cerebellum and of cerebellar granule neurons; also called p75NTR
T1 sequence: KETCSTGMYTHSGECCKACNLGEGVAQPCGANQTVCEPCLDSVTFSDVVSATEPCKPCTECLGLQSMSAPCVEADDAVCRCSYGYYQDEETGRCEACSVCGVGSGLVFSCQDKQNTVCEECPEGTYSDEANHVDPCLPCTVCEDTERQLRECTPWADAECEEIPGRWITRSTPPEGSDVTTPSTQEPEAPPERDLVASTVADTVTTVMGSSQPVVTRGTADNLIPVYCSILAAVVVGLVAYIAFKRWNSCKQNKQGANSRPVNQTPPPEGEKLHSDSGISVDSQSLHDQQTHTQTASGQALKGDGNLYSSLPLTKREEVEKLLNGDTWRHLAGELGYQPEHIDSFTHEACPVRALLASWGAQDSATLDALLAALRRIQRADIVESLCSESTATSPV
Nature of the test: immunoprecipitation of P7 mouse cerebellar proteins with anti-p45 antibodies, immunoblot with anti-p75 antibodies.

B1: full-length p45 (p45-FL) (receptor)
chain: MLYNVSKGVVYSDTALQGQDGDREGMWVGAGGALAPNTSSLFPPEPPGASSNIIPVYCALLATVILGLLAYVAFKCWRSHKQRQQLAKARTVELGDPDRDQRRGDSNVFVDSPPSLEPCIPSQGPHPDLGCQLYLHIPQQQQEEVQRLLMMGEPAKGWQELAGHLGYQAEAVETMACDQMPAYTLLRNWAAQEGNRATLRVLEDALAAIGREDVVQVLSSPAESSSVV
notes: Untagged full-length p45 expressed in HEK293 cells or from transfected capped RNA in CGNs; Also used here for endogenous p45 of P7 mouse cerebellum; also called PLAIDD; NRADD
As for B1, the binding result is listed as “binds”.
